Source: publication PMC2833280
Changes are numbered by the printed parent chain. In names and notes the source's numbering stands.

B1: β-LS (β-lactam synthetase) (Streptomyces clavuligerus; Y348F) (protein)
chain: MGAPVLPAAFGFLASARTGGGRAPGPVFATRGSHTDIDTPQGERSLAATLVHAPSVAPDRAVARSLTGAPTTAVLAGEIYNRDELLSVLPAGPAPEGDAELVLRLLERYDLHAFRLVNGRFATVVRTGDRVLLATDHAGSVPLYTCVAPGEVRASTEAKALAAHRDPKGFPLADARRVAGLTGVYQVPAGAVMDIDLGSGTAVTHRTWTPGLSRRILPEGEAVAAVRAALEKAVAQRVTPGDTPLVVLSGGIDSSGVAACAHRAAGELDTVSMGTDTSNEFREARAVVDHLRTRHREITIPTTELLAQLPYAVWASESVDPDIIEYLLPLTALYRALDGPERRILTGFGADIPLGGMHREDRLPALDTVLAHDMATFDGLNEMSPVLSTLAGHWTTHPYWDREVLDLLVSLEAGLKRRHGRDKWVLRAAMADALPAETVNRPKLGVHEGSGTTSSFSRLLLDHGVAEDRVHEAKRQVVRELFDLTVGGGRHPSEVDTDDVVRSVADRTARGAA
B2: β-LS (β-lactam synthetase) (Streptomyces clavuligerus) (protein)
chain: B1 chain with F348Y
B3: β-LS (β-lactam synthetase) (Streptomyces clavuligerus; Y348A) (protein)
chain: B1 chain with F348A
B4: β-LS (β-lactam synthetase) (Streptomyces clavuligerus; E382D) (protein)
chain: B1 chain with F348Y, E382D

Legend:
[1] = substrate: N=C(N)NCCC[C@H](NCCC(=O)O)C(=O)O; assay: purified protein; format: biochemical, Streptomyces clavuligerus; details: pH 8.8, 25 °C, saturating ATP (2-4 mM), ionic strength 0.1
[2] = substrate: O=C(O)C[C@@H]1CC[C@@H](C(=O)O)N1; assay: purified protein; format: biochemical, Streptomyces clavuligerus; details: pH 8.3, 25 °C, 2 mM ATP, ionic strength 0.1

Protein | Km [1] | kcat [1] | kcat/Km [1] | Km [2] | kcat [2]
B1 | 1400 ± 200 µM | 0.155 ± 0.007 s⁻¹ | 110 ± 20 M⁻¹ s⁻¹ | – | –
B2 | – | – | – | 4900 ± 700 µM | 0.026 ± 0.002 s⁻¹
B3 | 190 ± 20 µM | 0.0082 ± 0.0002 s⁻¹ | 43 ± 4 M⁻¹ s⁻¹ | – | –
B4 | 2800 ± 200 µM | 0.193 ± 0.006 s⁻¹ | 69 ± 6 M⁻¹ s⁻¹ | – | –
